For one substance, Kd results are on record in US20120208291A1.

In general, pKd refers to the Kd on a negative log10 scale, so that one unit is a factor of ten. Low readings indicate a high Kd, high ones a low Kd.

pKd: −log10 of the molar value.

The assay concerns the target acceptor complex of syntaxin linked to SNAP-25 (UniProt O16000). Nature of the assay: KISMI single-molecule imaging.
Chain of UniProt O16000 (O16000 1-265, one chain of several): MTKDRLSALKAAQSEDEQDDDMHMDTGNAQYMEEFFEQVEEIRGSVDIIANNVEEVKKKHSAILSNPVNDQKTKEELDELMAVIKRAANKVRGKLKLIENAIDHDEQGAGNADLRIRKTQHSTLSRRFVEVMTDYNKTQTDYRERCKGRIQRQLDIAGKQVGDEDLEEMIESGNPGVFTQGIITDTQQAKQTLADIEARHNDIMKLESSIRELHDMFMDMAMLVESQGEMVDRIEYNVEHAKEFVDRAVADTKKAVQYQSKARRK

In turn, “synaptobrevin (from UniProt O02495 1-86)” gave a pKd of 5.77.
